One assay has as its target Botulinum neurotoxin A (Clostridium botulinum, UniProt P0DPI1 2-1296). As to the kind of experiment: immunostaining of transfected SV2A/B double knockout hippocampal neurons.
The target of another assay is T1, Botulinum neurotoxin B (Clostridium botulinum, UniProt P10844 2-1291).
T1 sequence: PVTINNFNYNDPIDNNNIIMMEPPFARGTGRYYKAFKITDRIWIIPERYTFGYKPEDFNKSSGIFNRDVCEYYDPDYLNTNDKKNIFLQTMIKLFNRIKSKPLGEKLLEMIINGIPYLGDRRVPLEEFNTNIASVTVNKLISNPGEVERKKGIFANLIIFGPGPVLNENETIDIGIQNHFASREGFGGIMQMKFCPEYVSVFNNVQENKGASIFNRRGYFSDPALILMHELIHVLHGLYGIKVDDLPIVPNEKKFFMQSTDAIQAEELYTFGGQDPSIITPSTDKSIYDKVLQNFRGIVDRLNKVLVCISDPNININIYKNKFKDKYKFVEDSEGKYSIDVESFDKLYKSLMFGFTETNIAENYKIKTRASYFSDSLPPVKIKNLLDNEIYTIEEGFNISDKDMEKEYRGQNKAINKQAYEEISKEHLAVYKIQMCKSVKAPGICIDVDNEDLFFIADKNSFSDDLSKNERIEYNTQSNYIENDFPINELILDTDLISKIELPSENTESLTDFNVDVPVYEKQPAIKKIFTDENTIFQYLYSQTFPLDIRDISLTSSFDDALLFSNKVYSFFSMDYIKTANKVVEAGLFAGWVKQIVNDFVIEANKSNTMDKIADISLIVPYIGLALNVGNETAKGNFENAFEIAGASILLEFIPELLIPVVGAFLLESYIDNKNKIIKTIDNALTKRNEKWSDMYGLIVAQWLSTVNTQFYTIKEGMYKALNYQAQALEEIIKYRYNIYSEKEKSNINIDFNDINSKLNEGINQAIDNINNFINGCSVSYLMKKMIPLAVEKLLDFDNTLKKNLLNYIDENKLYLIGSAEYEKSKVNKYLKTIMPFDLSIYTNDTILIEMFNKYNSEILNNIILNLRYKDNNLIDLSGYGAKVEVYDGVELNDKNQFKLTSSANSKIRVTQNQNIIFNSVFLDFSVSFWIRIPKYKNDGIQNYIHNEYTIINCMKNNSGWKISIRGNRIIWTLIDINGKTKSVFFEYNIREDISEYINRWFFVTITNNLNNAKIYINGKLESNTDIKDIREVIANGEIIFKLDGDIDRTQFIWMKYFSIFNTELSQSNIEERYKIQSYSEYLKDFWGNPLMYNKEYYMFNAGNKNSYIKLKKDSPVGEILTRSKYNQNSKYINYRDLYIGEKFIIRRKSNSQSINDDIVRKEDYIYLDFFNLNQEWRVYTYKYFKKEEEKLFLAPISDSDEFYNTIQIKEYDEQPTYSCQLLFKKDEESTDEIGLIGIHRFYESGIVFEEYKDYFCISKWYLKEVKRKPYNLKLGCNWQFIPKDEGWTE
As to the kind of experiment: pull-down with immobilised GST-L4 (8 µg), western blot. (In general: In western blotting, separated proteins are transferred to a membrane and probed.)

Another assay deals with T2, Botulinum neurotoxin E (Clostridium botulinum, UniProt Q00496 2-1251).
T2 sequence: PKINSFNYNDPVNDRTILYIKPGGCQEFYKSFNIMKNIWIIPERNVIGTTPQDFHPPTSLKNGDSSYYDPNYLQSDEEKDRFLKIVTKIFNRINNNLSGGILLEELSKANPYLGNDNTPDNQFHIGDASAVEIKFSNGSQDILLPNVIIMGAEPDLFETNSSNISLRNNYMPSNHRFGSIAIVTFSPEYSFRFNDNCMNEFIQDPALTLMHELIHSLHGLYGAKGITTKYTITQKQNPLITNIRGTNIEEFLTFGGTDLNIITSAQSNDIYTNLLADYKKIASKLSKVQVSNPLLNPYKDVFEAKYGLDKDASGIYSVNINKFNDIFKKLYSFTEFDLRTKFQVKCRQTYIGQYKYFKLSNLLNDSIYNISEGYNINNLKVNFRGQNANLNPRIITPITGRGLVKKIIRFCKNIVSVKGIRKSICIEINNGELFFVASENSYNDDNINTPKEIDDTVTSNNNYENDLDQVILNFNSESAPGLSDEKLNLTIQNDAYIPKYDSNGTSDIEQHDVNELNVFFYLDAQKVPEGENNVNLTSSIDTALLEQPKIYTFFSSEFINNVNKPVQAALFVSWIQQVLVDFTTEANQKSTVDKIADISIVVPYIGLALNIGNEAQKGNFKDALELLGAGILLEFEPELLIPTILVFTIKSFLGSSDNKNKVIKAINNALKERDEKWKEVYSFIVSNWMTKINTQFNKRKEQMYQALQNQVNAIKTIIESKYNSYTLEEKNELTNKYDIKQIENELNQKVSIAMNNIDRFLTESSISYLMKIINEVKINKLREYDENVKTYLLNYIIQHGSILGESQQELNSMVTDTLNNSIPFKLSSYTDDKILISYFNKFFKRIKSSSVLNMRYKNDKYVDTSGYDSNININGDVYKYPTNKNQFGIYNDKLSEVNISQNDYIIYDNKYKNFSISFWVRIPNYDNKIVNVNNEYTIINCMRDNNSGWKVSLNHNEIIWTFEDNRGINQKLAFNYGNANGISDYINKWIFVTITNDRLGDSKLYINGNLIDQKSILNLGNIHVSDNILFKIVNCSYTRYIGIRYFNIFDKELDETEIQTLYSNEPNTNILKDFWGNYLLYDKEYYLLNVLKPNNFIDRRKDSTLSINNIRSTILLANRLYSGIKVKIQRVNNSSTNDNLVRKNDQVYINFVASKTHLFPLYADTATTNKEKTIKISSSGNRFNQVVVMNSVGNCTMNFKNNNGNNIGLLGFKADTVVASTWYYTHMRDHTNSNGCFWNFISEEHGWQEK
The description is as above.

B1: synaptotagmin I (other)
chain: MVSASHPEALAAPVTTVATLVPHNATEPASPGEGKEDAFSKLKQKFMNELHKIPLPPWALIAIAIVAVLLVVTCCFCVCKKCLFKKKNKKKGKEKGGKNAINMKDVKDLGKTMKDQALKDDDAETGLTDGEEKEEPKEEEKLGKLQYSLDYDFQNNQLLVGIIQAAELPALDMGGTSDPYVKVFLLPDKKKKFETKVHRKTLNPVFNEQFTFKVPYSELGGKTLVMAVYDFDRFSKHDIIGEFKVPMNTVDFGHVTEEWRDLQSAEKEEQEKLGDICFSLRYVPTAGKLTVVILEAKNLKKMDVGGLSDPYVKIHLMQNGKRLKKKKTTIKKNTLNPYYNESFSFEVPFEQIQKVQVVVTVLDYDKIGKNDAIGKVFVGYNSTGAELRHWSDMLANPRRPIAQWHTLQVEEEVDAMLAVKK
Consider B1, for which, in the assay with Botulinum neurotoxin A, the binding result is “no binding (tested: 10 nM)”.

B2: GST-tagged 4th luminal domain (L4) of rat SV2B (other)
chain: FPDMIRYFQDEEYKSKMKVFFGEHVHGATINFTMENQIHQHGKLVNDKFIKMYFKHVLFEDTFFDKCYFEDVTSTDTYFKNCTIESTTFYNTDLYKHKFIDCRFINSTFLEQKEGCHMDFEEDNDF
For B2, the binding result with Botulinum neurotoxin B and with Botulinum neurotoxin E was “no binding (tested: 100 nM)” each time.

B3: GST-tagged 4th luminal domain (L4) of rat SV2C (other)
chain: FPDVIKHLQSDEYALLTRNVQKDKYANFSINFTMENQVHTGMEYDNGRFLGVKFKSVTFKDSVFKSCTFDDVTSVNTYFKNCTFIDTLFENTDFEPYKFIDSEFQNCSFLHNKTGCQITFDDDYSAY
For the molecule B3, the binding result with Botulinum neurotoxin B and with Botulinum neurotoxin E was “no binding (tested: 100 nM)” throughout.

B4: GST-tagged 4th luminal domain (L4) of rat SV2A (other)
chain: FPDMIRHLQAVDYAARTKVFPGERVEHVTFNFTLENQIHRGGQYFNDKFIGLRLKSVSFEDSLFEECYFEDVTSSNTFFRNCTFINTVFYNTDLFEYKFVNSRLVNSTFLHNKEGCPLDVTGTGEGAY
With B4, the binding result in the assay with Botulinum neurotoxin B and with Botulinum neurotoxin E was “no binding (tested: 100 nM)” throughout.

(Values after patent US20100249372A1 (WISCONSIN ALUMNI RESEARCH FOUNDATION, published 2010).)
